Measurements from patent US20090282582A1, “ENVIRONMENTAL STRESS RESPONSIVE PROMOTER AND METHOD OF TISSUE-SPECIFIC GENE EXPRESSION USING THE SAME” (RIKEN, priority 2006, published 2009).

Assays:
[1] = tested on: Arabidopsis thaliana (columbia ecotype) plant body; experiment: full-length cDNA microarray analysis of gene expression levels after environmental stress application; conditions: in vivo
Protocol: In this example, the gene expression levels at the time of application of various types of environmental stresses were analyzed using microarrays. Specifically, the microarrays described in Seki et al., “Monitoring the expression profiles of 7000 Arabidopsis genes under drought, cold, and high-salinity stresses using a full-length cDNA microarray,” Plant J. 31: 279-292, 2002, were used, and analysis was carried out in accordance with the method similar to the method described therein. Various types of environmental stresses were applied to a plant body under the following conditions. Specifically, low-temperature stress application was carried out by introducing a plate containing a plant body into a low-temperature chamber (4° C.). Dehydration stress application was carried out by capturing the plant body with forceps while refraining from damaging the plant body, roughly removing moisture from the plant body on a Kim Towel, placing the plant body on another plate, placing the plate in a clean bench while leaving the lid open, letting it stand for 2 hours, and then closing the lid. Salt stress application was carried out by dispensing a mixture of MS medium (containing 1% sucrose, 0.1% agar, and 1 mM luciferin) with 250 mM NaCl to the roots of the plant bodies (200 μl per plant body) using a Pipetman. ABA stress application was carried out by dispensing a mixture of MS medium (containing 1% sucrose, 0.1% agar, and 1 mM luciferin) with 100 μM ABA to the roots of the plant bodies (200 μl per plant body) using a Pipetman. As a plant body to which environmental stress is to be applied, Arabidopsis thaliana (columbia ecotype), which had been cultivated on a germination medium containing Murashige and Skoog Salt, 3% sucrose, and […] for 3 weeks, was used. Cultivation conditions were determined so as to maintain the temperature in the chamber at 22° C. with a 16-hour light period and an 8-hour dark period. Total RNA was extracted from plant bodies after environmental stress application or from plant bodies to which no environmental stress had been applied using the TRIZOL Reagent (Life Technologies), and mRNA was extracted using the mRNA isolation kit (Militenyi Biotec Auburn). In accordance with the method described in the above article, mRNA samples were reversely transcribed in the presence of Cy3 dUTP or Cy5 dUTP (Amersham Pharmacia). Microarray analysis was carried out using cDNAs obtained via reverse transcription. Data obtained via microarray analysis were analyzed using the Quantarray Version 2.0 (GSI Lumonics).

[2] = tested on: transgenic Arabidopsis thaliana plant body (luciferase reporter gene); experiment: luciferase assay of promoter::LUC transgenic plants after environmental stress application; format: in vivo; conditions: for Tissue allowing specific induction: summary over stress types
Protocol: Specifically, promoter regions were isolated from these genes, transgenic plants in which luciferase reporter genes were to be expressed under the control of such promoters were prepared, and tissue specificity of the promoters was inspected via luciferase assay.
In this example, DNA fragments containing promoter regions of the genes identified in Example 1 were recovered via PCR.
The nucleotide sequences of the amplified DNA fragments were determined in accordance with a conventional technique to confirm that mutagenesis, such as substitution or deletion, was not introduced thereinto. After the absence of mutagenesis was confirmed, the recovered DNA fragments were introduced into the vector for promoter analysis (i.e., a vector prepared by introducing the Gateway recombinant sequence (tradename: Gateway Vector Conversion System, Invitrogen) and the luciferase reporter gene into the pGreen vector (Plant Molecular Biology 42: 819-832, 2000)) using the Gateway recombination system to construct a recombinant vector.
The recombinant vector prepared in (1) above was introduced into a plant via Agrobacterium infection. When a gene is introduced via Agrobacterium infection, a process of infecting a plant with Agrobacterium containing a plasmid comprising the target gene construct is necessary. This process was carried out via vacuum infiltration. Specifically, a plant body of Arabidopsis thaliana that had been grown in soil comprising vermiculite and an equivalent amount of pearlite was soaked in a culture solution of Agrobacterium containing the recombinant vector prepared in (1). The resultant was placed in a desiccator, suctioned with a vacuum pump to 65 to 70 mmHg, and then allowed to stand at room temperature for 5 to 10 minutes. The pot was transferred onto a tray, covered with a wrap, and kept moistened. The wrap was removed on the following day, the plant was allowed to grow in that state, and seeds were then harvested.
Subsequently, seeds were sown on MS agar medium to which antibiotic hygromycin has been added in order to select an individual having the recombinant vector prepared in (1). Arabidopsis thaliana that had been grown in this medium was transferred to a pot and allowed to grow therein. Thus, seeds of transgenic plants to which the recombinant vector prepared in (1) has been introduced were obtained.
The seeds of the transgenic plant lineage prepared in (2) were sowed on MS agar medium. The plant body 10 days after sowing was used for luciferase assay.
At the outset, 1 mM luciferin (containing 0.01% Triton-X) was sprayed over the entire plant body 5 times. After the plant body was allowed to stand in the dark for 5 minutes, luciferase luminescence was assayed using ARGUS (assay after treatment for 0 hours). Subsequently, various types of environmental stresses were applied (see below). Low-temperature stress application was carried out by introducing a plate containing a plant body into a low-temperature chamber (4° C.). Dehydration stress application was carried out by capturing the plant body with forceps while refraining from damaging the plant body, roughly removing moisture from the plant body on a Kim Towel, placing the plant body on another plate, placing the plate in a clean bench while leaving the lid open, letting it stand for 2 hours, and then closing the lid. Salt stress application was carried out by dispensing a mixture of MS medium (containing 1% sucrose, 0.1% agar, and 1 mM luciferin) with 250 mM NaCl to the roots of the plant bodies (200 μl per plant body) using a Pipetman. ABA stress application was carried out by dispensing a mixture of MS medium (containing 1% sucrose, 0.1% agar, and 1 mM luciferin) with 100 μM ABA to the roots of the plant bodies (200 μl per plant body) using a Pipetman.
Luciferase luminescence was assayed 2, 5, and 10 hours after the above various types of environmental stresses had been applied using the ARGUS system (Hamamatsu Photonics). […]

| Molecule | Environmental stress type to which the promoter responds [1] | Tissue in which specific induction of expression is realized ([2]; ABA stress (100 μM ABA)) | Tissue in which specific induction of expression is realized ([2]; ABA stress (100 μM ABA), listed as promoter of RAFL05-20-M16) | time after stress application at which activity to induce gene expression is exhibited ([2]; ABA stress, root tissue) | Tissue in which specific induction of expression is realized ([2]; Dehydration stress) | time after stress application at which activity to induce gene expression is exhibited ([2]; Dehydration stress) | Tissue in which specific induction of expression is realized ([2]; Dehydration stress, listed as promoter of RAFL05-20-M16) | Tissue allowing specific induction [2] | Tissue in which specific induction of expression is realized ([2]; ABA stress (100 μM ABA), listed as promoter of RAFL05-17-B13) | Tissue in which specific induction of expression is realized ([2]; Dehydration stress, listed as promoter of RAFL05-17-B13) | Tissue in which specific induction of expression is realized ([2]; Low temperature stress (4° C.)) | Tissue in which specific induction of expression is realized ([2]; Low temperature stress (4° C.), listed as promoter of RAFL05-17-B13) | Tissue in which specific induction of expression is realized ([2]; Salt stress (250 mM NaCl)) | Tissue in which specific induction of expression is realized ([2]; Salt stress (250 mM NaCl), listed as promoter of RAFL05-17-B13) |
| --- | --- | --- | --- | --- | --- | --- | --- | --- | --- | --- | --- | --- | --- | --- |
| Promoter of RAFL05-20-M16: environmental stress responsive promoter DNA, SEQ ID NO: 3, upstream of At2g46680 (ATHB7 transcription factor) | Dehydration and salt | Root tissue | root tissue | about 2 hours | Root tissue | about 10 hours | root tissue | Stem and leaf tissue and root tissue |  |  |  |  |  |  |
| Promoter of RAFL05-17-B13: environmental stress responsive promoter DNA, SEQ ID NO: 1, upstream of At1g01470 (LEA protein) (nucleic acid, listed as Arabidopsis thaliana) DNA: CCGCCAACTACCAACACCGACATATGTGCTTTCGGCAGTTTTGATATCATTCCAAAATTTCAATTATTATTTATCAAATTTATTTTCTTGGTAAAAGTTTAATTAATTTCAATTATTTGAATGTCTTAATTCACTGATTACAAATTATATATGTAATATATACATAACAATTTCGTTCGTGGAGTGTTATTATACTCCTTAAGCGAATCTGTATATTTTAAATAAAATTTTGATTTATGCACACGTACATGTTCAATTGAAACGTTTTCCCTAACTATAGATGCCAATAAATAATAAGTTGATTTTTAAAATGTACAAAACAAAAGGTACCGTTTTGTAAAATTTTGCAACCAAAAAGTACAATCGGCCGTTGAAAATCGTGGAACCAAACACTAATTAAAGAGAAGTGTGAATATAATCTAGTGTTTGCGGATTTATATTATAAAATTTGTGTATCACTAAAATGTCAAAGCATGCTTTGACTGGTCAATAAGTCAAATTAACTAACAAACCATGCGAGGCGTAGGTTTGACTTCTTAACATAAATGCTGACTCAGTTTTTCCATTCCGCAGCTGTCGACTAATTGGACACGCTTCTTCCAATCCCTTTCCACTAATCATCCATCAACACGTGACATGCCTACAGTGCACGACTTCACAGTGATCATGTCAAAGTTTTGTTTTTAAGAGAAGAAGATTCACGACTTCACAGTGATCATAGTCCAGTTACAAATTTGAATGGGCTTATGGCCTGTGGCCCATTTAAGTTTGACCTTAATATCCATCAGAAACCCATACCAATACGGGTCATAAGTGCATTGTCCATATAGTGTACCGCAATGCATGGGAGTACTACTACATTCCACCGACGTGCATATGGGGGGACATGGTCGGTCCATTAATCCCTTGCGCATCTTATTCCTTACGCGAATACTTTTCCCTCTTTTAGTTTTGTATAATACTTTCCATTTTTTTGGTATTAAATTTATCGTGTGACTATCTAAAAAGGTATTTAATTATCTAGTTTAGCTATAACTGCAAACAAAATATCTATTTTCATGAATGATATATTTTTGAAATAAAATATTGTTGTCATGTAACGAAAAAATCAAAAATCAAGCAGAAGACACGTATAACCCACGCTTTCACTCTCACTCGTGGAAAACCCTCACACGTACACAAACCATTATAAAATTTAATCCATTTACATCGACCGACTTCATAAGAACATCGTAATCCCATCCGTTTATATATATATTCCAAGTTAAACTTCATATCATACACACAAACCTAAAACACCGAAACAAAAACAAAGAGATTTAAACAAGAAGAGTTATT | Dehydration and salt | Stem and leaf tissue (weak) |  |  | Stem and leaf tissue and root tissue |  |  | Stem and leaf tissue and root tissue | weak gene expression in stem and leaf tissue | stem and leaf tissue and root tissue | Stem and leaf tissue | stem and leaf tissue | Stem and leaf tissue | stem and leaf tissue |
